This data set relates to MS2 coat protein. Description: apparent KD of MS2 coat protein; designed switch direction (-1 OFF switch, 1 ON switch): 1; higher = weaker reporter binding. An outline of the steps:
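For each design, the apparent KD is the median over clusters of curves fitted to normalised cluster fluorescence. Clusters held RNA switches with common flanks, transcribed on Illumina chips by stalled E. coli RNA polymerase. These were titrated with SNAP-549-labelled MS2 coat protein, doubling from 0.7 or 1.5 nM to 3 µM, without input, with 200 uM small-molecule ligand, or with an oligonucleotide input.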

The mark [1] stands for this setting: Eterna round: R95, input ligand: FMN 200 uM.
The mark [2] stands for this setting: Eterna round: R95, input ligand: microRNA oligo, concentration not stated.
The mark [3] stands for this setting: Eterna round: R95, input ligand: none.
[4] abbreviates: input ligand: microRNA oligo, concentration not stated.

As to “GGCUAUCGCGUACGAUAGCUGAAGCAUGUACAUGAGGAUCACCCAUGUCAUGUACAAGCUUUUUGCUCGUCUUAUUG [JL-shm-2.32 JL mod] (puzzle: Sensor for hsa-mir-208a)”, the “apparent KD of MS2 coat protein” value reads like this: under setting [1], 243 nM; under setting [2], 13.9 nM; under setting [3], 348 nM.
“AGUCCUGAAUAAAUUAAACAGAGACAUGUACAUGAGGAUCACCCAUGUCAUGUGCAAGUUUUAUGCUCGUCAUAUAA [Sensorship 18 - Jieux - Sensor for hsa-mir-208a] (puzzle: Sensor for hsa-mir-208a)”: the “apparent KD of MS2 coat protein” value was determined as 13 nM under setting [1], 8.35 nM under setting [2] and 12.8 nM under setting [3].
Regarding “AAGAAGACGAACAAGGAUAUGUCAAAGGAAACAUGAGGAUCACCCAUGUAGAGAUUGGAAAAGAAACAGAAGGUGUACAGAAAGA [JR_SS2_Sub005] (puzzle: Same State 2)”, the “apparent KD of MS2 coat protein” value reads like this: under setting [1], 24.8 nM; under setting [2], 33.3 nM; under setting [3], 35.1 nM.
On the same counts, the results for “UACAAUCUAUCUGAGGAUAUCAUGAAAUAAACAUGAGGAUCACCCAUGUGCAGGAAAACUGCAUAUGAGAAGGCAGAUAGAUUGA [salish99_ss2_r3_018] (puzzle: Same State 2)” are 50.2 nM, 1130 nM and 1810 nM.
For the sequence “UUACAUGAGGAUCACCCAUGUCGCUGGUAAACUUCGAACCCGCAGGAUAUGUAUGCCACUUUACGACAGAAGGGCGGGUGCCUG [Eternabot solution 47] (Eterna round: R96, puzzle: Same State NG 3)”, the “apparent KD of MS2 coat protein” value by setting is: (input ligand: FMN 200 uM) 37.9 nM; under setting [4], 50.3 nM; (input ligand: none) 64.3 nM.
Turning to “UAAACUAGUUAUAGUGUAAUGCAUAUUAUACAUGAGGAUCACCCAUGUGAUGGUUGGUAUGAUUUUGUUCGUCUUAA [JR_SHM208A_Sub079] (puzzle: Sensor for hsa-mir-208a)”, the “apparent KD of MS2 coat protein” value is, setting by setting: under setting [1], 148 nM; under setting [2], 61.9 nM; under setting [3], 232 nM.
For “GUUAAACAUGAGGAUCACCCAUGUAAUAAUAUGGGAGGAUAUCAGAAAUUAUUUAUUAAAUGAGAAGGCCUAAUUG [Mat - Same State 1 - Mod of Eli - D81] (puzzle: Same State 1)”, the “apparent KD of MS2 coat protein” value came out at 53.6 nM under setting [1], 321 nM under setting [2] and 150 nM under setting [3].
Regarding “CCAUAGUACAAUUUAGAUCUACAUGAGGAUCACCCAUGUACUGAGGAUAUCAGCUCGAUUAGAGCUGAGAAGGCAGAAUUAAUU [SSNG3/5-A2] (Eterna round: R96, puzzle: Same State NG 3)”, the “apparent KD of MS2 coat protein” value runs as follows: (input ligand: FMN 200 uM) 58.4 nM; under setting [4], 96.8 nM; (input ligand: none) 122 nM.
Consider “UCAAUCAUGUAAGGAUAUGCAGCCGAAACGGCUGCAGAAGGUACUAUAAUUACAUGAGGAUCACCCAUGUUAUAAAAUUUAUAU [Mat - Same State NG 1 - JL mod - D67] (Eterna round: R96, puzzle: Same State NG 1)”, for which, under setting [4], the “apparent KD of MS2 coat protein” value was determined as 85 nM.
As to “GCUAGAAUUAAAGCCAACAUGAGGAUCACCCAUGUAUGUUGGCAGGAUAUCGUUUGCUUUGCAAACGAGAAGGGCCAUACUAGC [JL SSNG3 1.08] (Eterna round: R96, puzzle: Same State NG 3)”, the “apparent KD of MS2 coat protein” value (input ligand: FMN 200 uM) is 47.7 nM, the “apparent KD of MS2 coat protein” value under setting [4] is 98.1 nM and the “apparent KD of MS2 coat protein” value (input ligand: none) was determined as 134 nM.
As to “AUAAAACAUGAGGAUCACCCAUGUCAACAAAGUCGAGGAUAUGGGCAAAUAAAAUAAGAACCAGAAGGCUAAUAAU [salish99_ss1_r3_052] (puzzle: Same State 1)”, the “apparent KD of MS2 coat protein” value runs as follows: under setting [1], 246 nM; under setting [2], 378 nM; under setting [3], 375 nM.
For “AGCCGAGACACAGGAUAUAGAUAUCUACAUGAGGAUCACCCAUGUAGCAACACGUGGUAGUGAUACUAGAAGGGUGCUCGGCGC [Omei SS(NG)2 Cv9] (Eterna round: R96, puzzle: Same State NG 2)”, the “apparent KD of MS2 coat protein” value runs as follows: (input ligand: FMN 200 uM) 20.2 nM; under setting [4], 60 nM; (input ligand: none) 73.1 nM.
On to “ACAUGAGAGAUAGGAUAUGCUGUACCUACAUGUGACAUGAGGAUCACCCAUGUGGUAAGUAUGAGGCAGAAGGAUCAGAUAUGU [Equivalence 49 - Jieux - Same State NG 2] (Eterna round: R96, puzzle: Same State NG 2)”, for which the “apparent KD of MS2 coat protein” value was 13.6 nM (input ligand: FMN 200 uM), 17.3 nM under setting [4] and 23.2 nM (input ligand: none).
On the same counts, the results for “UAUUAAUCUGUAGGAUAUGUAGGAUAUGGACGAGGAUCACCCGAGCAGCAUCAGCGCACCAGAGGACAGAAGGACGGCCGGGUG [pwkr ssNG2 2F5 2FMN.24] (Eterna round: R96, puzzle: Same State NG 2)” are 1670 nM, 411 nM and 177 nM.
In the case of “CUACAGGCCAGAGGAUAUGGGAAAGGAAGUGUACCAGAAGGUUGGCCUCCUGAGUACAUGAGGAUCACCCAUGUAGAAAGGCGA [PowerStrip SSNG 1.6] (Eterna round: R96, puzzle: Same State NG 1)”, the “apparent KD of MS2 coat protein” value reads like this: (input ligand: FMN 200 uM) 143 nM; under setting [4], 41.6 nM; (input ligand: none) 79.9 nM.
Consider “GCUCGAUGAGCUGUCUACAUGAGGAUCACCCAUGUAGAUGCGGAGGAUAUUUACGUGCUUUAUGUAGAGAAGGCCGUAUCGAGC [SameState NG3 #79] (Eterna round: R96, puzzle: Same State NG 3)”, for which the “apparent KD of MS2 coat protein” value was 12 nM (input ligand: FMN 200 uM), 15.6 nM under setting [4] and 17.9 nM (input ligand: none).
In the case of “AUCUCUGUGCCGCAGGAUAUACCAACGGCUACAUGAGGAUCACCCAUGUCAUACCGUCGAAAGUGGUAGAAGGGUGUGCACGAGC [Reteonar] (puzzle: Same State 2)”, the “apparent KD of MS2 coat protein” value stood at 17.7 nM under setting [1], 90.6 nM under setting [2] and 113 nM under setting [3].
With “CUACGCGCCGCAGGAUAUGCCGACCCGUGUUGAGCAGAAGGGCGAAACAUGAGGAUCACCCAUGUUGAAAGAGCGCAAAAUUAA [Erteerte] (Eterna round: R96, puzzle: Same State NG 1)”, the “apparent KD of MS2 coat protein” value (input ligand: FMN 200 uM) is 23.5 nM, the “apparent KD of MS2 coat protein” value under setting [4] was 16.4 nM and the “apparent KD of MS2 coat protein” value (input ligand: none) came to 30.1 nM.
In the case of “UGUUGUAUUACAGGAUAUCUAGUAUUUUUAUUGAGAGAAGGGUAUUCACAUGAGGAUCACCCAUGUAUAUACGAGGAAGUUGUG [JMF's solution 55] (Eterna round: R96, puzzle: Same State NG 1)”, under setting [4], the “apparent KD of MS2 coat protein” value worked out at 34.8 nM.
“AUUGCUUUCGCAGGAUAUGAUGCGAAAAUUGCGUCAGAAGGGUGGAGUCUCUCAUUGCAAGAGGACAUGAGGAUCACCCAUGUC [SameState NG1 #86] (Eterna round: R96, puzzle: Same State NG 1)”: the “apparent KD of MS2 coat protein” value (input ligand: FMN 200 uM) amounted to 177 nM, the “apparent KD of MS2 coat protein” value under setting [4] was found to be 245 nM and the “apparent KD of MS2 coat protein” value (input ligand: none) was 322 nM.
Take “UACAUACGCGGAGGAUAUGGGCGAGGCGCAGAGGUCUGCGUCAAAACAUGAGGAUCACCCAUGUCCCAGAAGGCCGCGUAAACU [Enisen] (Eterna round: R96, puzzle: Same State NG 2)”: the “apparent KD of MS2 coat protein” value is, setting by setting: (input ligand: FMN 200 uM) 15.7 nM; under setting [4], 51.3 nM; (input ligand: none) 73.4 nM.
In the case of “GCUGCAAUAAACGCCUACAUGAGGAUCACCCAUGUAUGUAGGCAGGAUAUCGUUUGCAAAGCAAACGAGAAGGGCCGUAGUAGC [Mat - Same State NG 3 - JL Mod - D35] (Eterna round: R96, puzzle: Same State NG 3)”, the “apparent KD of MS2 coat protein” value came out at 26.3 nM (input ligand: FMN 200 uM), 44.6 nM under setting [4] and 66.1 nM (input ligand: none).
Consider “GGUCCAGCCUGAGCUGGACUACAGCAUGUACAUGAGGAUCACCCAUGUCAUGUACAUGCUUUUUGUUUGUCUUAAAA [Sensorship 10 - Jieux - Sensor for hsa-mir-208a] (puzzle: Sensor for hsa-mir-208a)”, for which the “apparent KD of MS2 coat protein” value by setting is: under setting [1], 20.2 nM; under setting [2], 38.8 nM; under setting [3], 24.6 nM.
For the sequence “GCUAGAAUUAACGCCUACAUGAGGAUCACCCAUGUAUGUAGGCAGGAUAUCGUUUGCAAAGCAAACGAGAAGGGCCUUACUAGC [Mat - Same State NG 3 - JL Mod - D31] (Eterna round: R96, puzzle: Same State NG 3)”, the “apparent KD of MS2 coat protein” value amounted to 27.3 nM (input ligand: FMN 200 uM), 31 nM under setting [4] and 46.5 nM (input ligand: none).
Regarding “UAUGACUUACAAGGAUAUUAAUAACAUGAGGAUCACCCAUGUGGCUGUGUGUGUUAGAUAAGCUAUAAGAAGGUGUGUGUGUUU [JR_SSNG2_Sub095] (Eterna round: R96, puzzle: Same State NG 2)”, the “apparent KD of MS2 coat protein” value (input ligand: FMN 200 uM) was 66.2 nM, the “apparent KD of MS2 coat protein” value under setting [4] turned out to be 244 nM and the “apparent KD of MS2 coat protein” value (input ligand: none) is 223 nM.
In the case of “UGCCUGAGUCGAGGAUAUUAUGGAUCCUCUAAUACAUGAGGAUCACCCAUGUAAUUAAUUAUACAUGAGAAGGUGACUCAGGCU [SSNG2/12-B1] (Eterna round: R96, puzzle: Same State NG 2)”, the “apparent KD of MS2 coat protein” value under setting [4] was 293 nM.
For “GAUCGUUUGAUAGGAUAUCGCUAUACAUGAGGAUCACCCAUGUUUACCACGCUGGUUUUUCAUACCGAGAAGGAUUCUGAUGAU [salish99_SSNG02_r04_009] (Eterna round: R96, puzzle: Same State NG 2)”, the “apparent KD of MS2 coat protein” value was 29.9 nM (input ligand: FMN 200 uM), 24.9 nM under setting [4] and 36.9 nM (input ligand: none).

These data come from the supplement of paper PMC9170038.
